Results from patent US20160137714A1 (Thrasos Innovation, Inc., priority 2014, published 2016).
Positions of bridges follow the written chain, without caps; N, C: chain ends. Non-standard residues stand in square brackets, D forms with d. Residues, ends and D or L forms follow the SMILES beside them. No end group written: not given here. *: point of attachment. Hydrocinnamoyl = O=C(CCc1ccccc1)*; Pyrazinecarbonyl = O=C(c1cnccn1)*; dNMeR = CN[C@H](CCCNC(=N)N)C(=O)O

Legend:
[1] = FIGURE 31 (1/2)
Description: Table printed on a drawing sheet, FIGURE 31 (1/2)
Peptide to internal standard peak area ratios were used calculate percentage remaining peptide at 60 minutes and 120 minutes. Peptides are identified by GPR number (GPR#) and SEQ ID NO.
First reader's note: First of two sheets of FIGURE 31; the table continues on sheet 2/2, and the meaning of the asterisks is not printed on this sheet.

[2] = Ex-vivo plasma stability; format: in vitro ADME, mouse or rat; conditions: for remaining at 1 h / remaining at 2 h: fresh plasma 37° C., 1 μM; for remaining at 1 h: 60 min, read-out: Percent remaining 60 min; for remaining at 2 h: 120 min, read-out: Percent remaining 120 min
Description: Test article is added to fresh mouse or rat plasma at a final in-vial concentration of 1 μM. The peptide is incubated in a water bath at 37° C. over a time course that included the following points (in minutes): 0, 15, 30, 60, 120, 240, and 1440. After the incubation time is completed, a 50 μL aliquot of plasma is removed and proteins are precipitated using a solution containing internal standard (THR-123 at 150 ng/mL) in methanol with 0.5% acetic acid (v/v). The samples are centrifuged at 13,000 RPM for 5 minutes, and a 100 μL aliquot of supernatant is removed and transferred to a 96-well plate containing 200 μL of reconstitution solution (Water/MeOH/Acetic Acid/TFA, 60/40/0.2/0.05, v/v/v/v). A calibration curve and quality control (QC) samples are prepared in parallel in the same manner as the incubation samples. The calibration range for this assay is from 0.02 to 2.0 μM in rat or mouse plasma. The extracted calibrants, QC, and incubation samples are injected onto an AB SCIEX API 2000 LC-MS/MS system. Chromatographic separation is performed using a reversed-phase C18 HPLC column (Ace-3 C18, 30×2.1 mm, 3 μm). The solvent system consists of Milli-Q water, acetonitrile and formic acid. Analyte and internal standard are detected using the multiple reaction monitoring (MRM) scan mode. Calibration curves are generated by using a weighted (1/concentration) quadratic regression analysis of the peak area ratios (analyte/internal standard) versus the nominal concentration of the calibration standards. The concentration of the analyte in the incubation samples is determined by back-calculating the peak area ratios obtained using the quadratic regression.

remaining at 1 h [2]	remaining at 2 h [2]	stability toward plasma proteolytic cleavage ([2]; versus THR-123, rat plasma (FIGS. 3 and 4))	Compound	% Remaining at 60 and 120 minutes | 60 [1]	% Remaining at 60 and 120 minutes | 120 [1]
–	–	–	Cys-Tyr-Phe-Asp-Asp-Ser-Ser-Asn-Ala-Leu-Cys-Lys-Lys-Tyr-(Me)(D)Arg-Ser (CYFDDSSNALCKKY[dNMeR]S-OH; disulfide 1-11 (inferred)) [SEQ ID NO:42]	100.0%	94.0%
–	–	–	Cys-Tyr-Phe-Nal-Asp-Ser-Ser-Asn-Val-Leu-Cys-Lys-Lys-(D)Tyr-Arg-Ser (CYF[Nal]DSSNVLCKK[dY]RS-OH; disulfide 1-11 (inferred)) [SEQ ID NO:48]	93.33%	97.49%
–	–	–	[N-terminal: Pirazinyl-CO-]Cys-Tyr-Phe-Asp-Asp-Ser-Ser-Asn-Val-Leu-Cys-Lys-Lys-(D)Tyr-Arg-Ser (Pyrazinecarbonyl-CYFDDSSNVLCKK[dY]RS-OH; disulfide 1-11 (inferred)) [SEQ ID NO:34]	66.2%	78.7%
–	–	–	CC(C)C[C@@H]1NC(=O)[C@H](C(C)C)NC(=O)[C@H](CC(N)=O)NC(=O)[C@H](CO)NC(=O)[C@H](CO)NC(=O)[C@H](CC(=O)O)NC(=O)[C@H](CC(=O)O)NC(=O)[C@H](Cc2ccccc2)NC(=O)[C@H](Cc2ccc(O)cc2)NC(=O)[C@@H](NC(=O)CCc2ccccc2)CSSC[C@@H](C(=O)N[C@@H](CCCCN)C(=O)N[C@@H](CCCCN)C(=O)N[C@@H](Cc2ccc(O)cc2)C(=O)N[C@@H](CCCNC(=N)N)C(=O)N[C@@H](CO)C(=O)O)NC1=O [SEQ ID NO:31, [N-terminal: Phenyl-CH2-CH2-CO-]Cys-Tyr-Phe-Asp-Asp-Ser-Ser-Asn-Val-Leu-Cys-Lys-Lys-Tyr-Arg-Ser] (Hydrocinnamoyl-CYFDDSSNVLCKKYRS-OH; disulfide 1-11)	26.6%	11.8%
–	–	–	Cys-Tyr-Phe-Nal-Asp-Ser-Ser-Asn-Val-Leu-Cys-Lys-Lys-Tyr-Arg-Ser (CYF[Nal]DSSNVLCKKYRS-OH; disulfide 1-11 (inferred)) [SEQ ID NO:47]	9.0%	8.2%
–	–	–	Cys-Tyr-Tyr-Phe-Ser-Ser-Ser-Phe-Val-Leu-Cys-Lys-Arg-Tyr-(Me)(D)Arg-Ser (CYYFSSSFVLCKRY[dNMeR]S-OH; disulfide 1-11 (inferred)) [SEQ ID NO:44]	74.3%	57.5%
–	–	–	CYFDDSSNVKCKK[dA]RS (cysteine pairing not given here) [SEQ ID NO:28]	75.3%	90.2%
–	–	–	Cys-Tyr-Phe-Asp-Asp-Ser-Ser-Asn-Thr-Leu-Cys-Lys-Lys-Tyr-(Me)(D)Arg-Ser (CYFDDSSNTLCKKY[dNMeR]S-OH; disulfide 1-11 (inferred)) [SEQ ID NO:40]	106.0%	99.2%
–	–	–	Cys-Tyr-Phe-Asp-Asp-Asn-Ser-Asn-Val-Leu-Cys-Arg-Lys-Tyr-(Me)(D)Arg-Ser (CYFDDNSNVLCRKY[dNMeR]S-OH; disulfide 1-11 (inferred)) [SEQ ID NO:38]	90.4%	84.2%
77.6%	64.2%	enhanced	CC(C)C[C@@H]1NC(=O)[C@H](C(C)C)NC(=O)[C@H](CC(N)=O)NC(=O)[C@H](CO)NC(=O)[C@H](CO)NC(=O)[C@H](CC(=O)O)NC(=O)[C@H](CC(=O)O)NC(=O)[C@H](Cc2ccccc2)NC(=O)[C@H](Cc2ccc(O)cc2)NC(=O)[C@@H](N)CSSC[C@@H](C(=O)N[C@@H](CCCCN)C(=O)N[C@H](CCCCN)C(=O)N[C@@H](Cc2ccc(O)cc2)C(=O)N[C@@H](CCCNC(=N)N)C(=O)N[C@@H](CO)C(=O)O)NC1=O [GPR-388, Cys-Tyr-Phe-Asp-Asp-Ser-Ser-Asn-Val-Leu-Cys-Lys-(D)lys-Tyr-Arg-Ser] (H-CYFDDSSNVLCK[dK]YRS-OH; disulfide 1-11)	–	–
–	–	–	[N-terminal: Pirazinyl-CO-]Cys-Tyr-Phe-Asp-Asp-Ser-Ser-Asn-Val-Leu-Cys-Lys-Lys-Tyr-Arg-Ser (Pyrazinecarbonyl-CYFDDSSNVLCKKYRS-OH; disulfide 1-11 (inferred)) [SEQ ID NO:33]	44.3%	23.6%
–	–	–	CC(C)C[C@@H]1NC(=O)[C@H](C(C)C)NC(=O)[C@H](CC(N)=O)NC(=O)[C@H](CO)NC(=O)[C@H](CO)NC(=O)[C@H](CC(=O)O)NC(=O)[C@H](CC(=O)O)NC(=O)[C@H](Cc2ccccc2)NC(=O)[C@H](Cc2ccc(O)cc2)NC(=O)[C@@H](NC(=O)CCc2ccccc2)CSSC[C@@H](C(=O)N[C@@H](CCCCN)C(=O)N[C@@H](CCCCN)C(=O)N[C@H](Cc2ccc(O)cc2)C(=O)N[C@@H](CCCNC(=N)N)C(=O)N[C@@H](CO)C(=O)O)NC1=O [SEQ ID NO:32, [N-terminal: Phenyl-CH2-CH2-CO-]Cys-Tyr-Phe-Asp-Asp-Ser-Ser-Asn-Val-Leu-Cys-Lys-Lys-(D)Tyr-Arg-Ser] (Hydrocinnamoyl-CYFDDSSNVLCKK[dY]RS-OH; disulfide 1-11)	82.0%	91.0%
3.5%	1.6%	–	CC(C)C[C@@H]1NC(=O)[C@H](C(C)C)NC(=O)[C@H](CC(N)=O)NC(=O)[C@H](CO)NC(=O)[C@H](CO)NC(=O)[C@H](CC(=O)O)NC(=O)[C@H](CC(=O)O)NC(=O)[C@H](Cc2ccccc2)NC(=O)[C@H](Cc2ccc(O)cc2)NC(=O)[C@@H](N)CSSC[C@@H](C(=O)N[C@@H](CCCCN)C(=O)N[C@@H](CCCNC(=N)N)C(=O)N[C@@H](Cc2ccc(O)cc2)C(=O)N[C@@H](CCCNC(=N)N)C(=O)N[C@@H](CO)C(=O)O)NC1=O [GPR-293, Cys-Tyr-Phe-Asp-Asp-Ser-Ser-Asn-Val-Leu-Cys-Lys-Arg-Tyr-Arg-Ser] (H-CYFDDSSNVLCKRYRS-OH; disulfide 1-11)	–	–
